{"source": "paper doi:10.1101/2022.07.13.499703", "assay_in_all_cases": "crystal structure", "key": {"[1]": {"biological_target": "BKPyV VP1 A72V-E73Q-E82Q triple mutant (VQQ) pentamer (BK polyomavirus) (UniProt P03088)"}, "[2]": {"biological_target": "BKPyV VP1 E73A variant pentamer (BK polyomavirus) (UniProt P03088)"}, "[3]": {"biological_target": "BKPyV VP1 E73Q variant pentamer (BK polyomavirus) (UniProt P03088)"}, "[4]": {"biological_target": "BKPyV VP1 K69N-E82Q double mutant (N-Q) pentamer (BK polyomavirus) (UniProt P03088)"}}}
{"substance": "BKPyV VP1 A72V-E73Q-E82Q triple mutant (VQQ) pentamer (from UniProt P03088 30-300) (domain or fragment)", "values": [{"measurement": "stoichiometry N", "setting": "[1]", "result": 5}]}
{"substance": "BKPyV VP1 E73A variant pentamer (from UniProt P03088 30-300) (domain or fragment)", "values": [{"measurement": "stoichiometry N", "setting": "[2]", "result": 5}]}
{"substance": "BKPyV VP1 E73Q variant pentamer (from UniProt P03088 30-300) (domain or fragment)", "values": [{"measurement": "stoichiometry N", "setting": "[3]", "result": 5}]}
{"substance": "BKPyV VP1 K69N-E82Q double mutant (N-Q) pentamer (from UniProt P03088 30-300) (domain or fragment)", "values": [{"measurement": "stoichiometry N", "setting": "[4]", "result": 5}]}
